± gives the uncertainty stated by the source.
Assay: amyloid nucleation score (Sup35N fusion, yeast selection) (log enrichment); library NNK2; higher = more nucleation; inactive = no reads after selection
In short: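 The nucleation score is the log enrichment of output over input reads, calculated with DiMSum and centred on the mode score of non-aggregating sequences. Sequences with under 100 input reads were excluded. Reads came from Illumina sequencing of plasmid inserts from psi-negative yeast expressing Sup35N fused to peptides of 20 random codons, induced 24 hours with 100 μM copper sulfate and grown 7 days at 30°C without adenine and uracil.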
In the case of RWARQRAWTRLLNGE, the amyloid nucleation score is reported as 1.18 ± 0.48.
For FKFYGFFD, the amyloid nucleation score was “inactive”.
Substance CDMSHGTFFTIFCRLTNA has an amyloid nucleation score of 4.81 ± 0.11.
Substance GSCSKCNWCINKTAQGFVLS has an amyloid nucleation score of -0.062 ± 0.45.
For HNYMLVILHRDSPNLNLGHS, the amyloid nucleation score was 3.94 ± 0.12.
LWFITCNMSGHWLLTERR gave an amyloid nucleation score of 4.39 ± 0.064.
Work on AGNQIRIRASTCASMLGWDL yielded an amyloid nucleation score of 3.83 ± 0.051.
In the case of AFIYYFNLTSAHYFPMRQMF, the amyloid nucleation score is reported as “inactive”.
With QLIIMCVMGEQTICTVCHTG the amyloid nucleation score was 7.153 ± 0.042.
With MGDTRNGYFSRMLFYTDCPW the amyloid nucleation score was 0.037 ± 0.43.
For RSHMSRLIVDFNTG, the amyloid nucleation score was 0.474 ± 0.3.
For SLIGTRLIGAAGISSVKRLY, the amyloid nucleation score was 0.208 ± 0.46.
With AWLVLWDIAI the amyloid nucleation score was 0.583 ± 0.36.
In the case of GNVVMN, the amyloid nucleation score is reported as 0.863 ± 0.18.
With AFEDVDVQS the amyloid nucleation score was 0.94 ± 0.32.
With NGITDV the amyloid nucleation score was -0.414 ± 0.45.
In the case of CASLRIEDP, the amyloid nucleation score is reported as 1.17 ± 0.18.
For YFLSSFVSNWWAQYVYW, the amyloid nucleation score was “inactive”.
Substance GAKIGKMDVLGFDGDGLIYI has an amyloid nucleation score of 1.42 ± 0.1.
For LTYILFGYFMASCFMCFFVS, the amyloid nucleation score was 0.138 ± 1.1.
With NSKKWSQGIGTYSDRAFYVF the amyloid nucleation score was “inactive”.
In the case of ITFFLRDMIAC, the amyloid nucleation score is reported as -0.907 ± 1.
KRDRIAFPMEIDDIIKAWM showed an amyloid nucleation score of -0.929 ± 0.55.
Substance GVTSCLRRPWFKYVILSPRP has an amyloid nucleation score of 1.44 ± 0.21.
Work on VSRVEYCSGCMSANYLL yielded an amyloid nucleation score of 7.7 ± 0.08.
Substance AWMRDLCSVYRCVGCDLLWA has an amyloid nucleation score of 6.25 ± 0.081.
WSSTVKSVKSAGAP showed an amyloid nucleation score of 0.475 ± 0.38.
Substance IIPCRSLFAFNMMVM has an amyloid nucleation score of 0.288 ± 0.53.
In the case of WCYELIYV, the amyloid nucleation score is reported as -0.573 ± 0.79.
Work on KTIQVGQVA yielded an amyloid nucleation score of 1.24 ± 0.29.
Work on LIGDSLSVVRNRNFPPARGK yielded an amyloid nucleation score of -0.237 ± 1.
GLTGRPQRLIVWAYDLERLW gave an amyloid nucleation score of -0.09 ± 0.63.
In the case of MPGMVTSCTVFCNQFKMETC, the amyloid nucleation score is reported as 6.457 ± 0.061.
SLKTVAFHSEMFFCSTLVDM showed an amyloid nucleation score of 0.153 ± 0.8.
Substance PANGS has an amyloid nucleation score of -0.249 ± 1.
Work on DRWLVFPSNRPVFVMDRFNG yielded an amyloid nucleation score of -0.414 ± 0.64.
RFERISQAKIARTLGLWEML showed an amyloid nucleation score of 0.878 ± 0.17.
WYFIGKCRDGVSDGMRNNVR gave an amyloid nucleation score of 0.148 ± 0.22.
In the case of IKDMTKVIATGFCLCITLVC, the amyloid nucleation score is reported as 0.592 ± 0.66.
In the case of RFMVTTAGRVLPLLSMRGWA, the amyloid nucleation score is reported as 4.68 ± 0.061.
Work on QSVLSLSGLYGHDLREGLL yielded an amyloid nucleation score of -0.387 ± 0.49.
Work on RSSKTNWWTGEISVPYGYWM yielded an amyloid nucleation score of 0.368 ± 0.47.
In the case of YHRCMKGVRDFVKLVDDCML, the amyloid nucleation score is reported as -1.09 ± 0.49.
LKRNMWFLYRGTFARSYYAN showed an amyloid nucleation score of -1.03 ± 0.55.
With WNLFMQYAFYRMDLASK the amyloid nucleation score was -0.689 ± 1.1.
Work on NEDTAGTRRLHPRYGVADWS yielded an amyloid nucleation score of 0.88 ± 0.18.
With VNYLPWLWSMCNRVH the amyloid nucleation score was -0.943 ± 0.61.
For KLGKPFARRKFCICNSQWVG, the amyloid nucleation score was -0.743 ± 0.31.
With IDSYLNTSKASRVPCDLRAL the amyloid nucleation score was 0.67 ± 0.81.
In the case of TAASISIDRTKSMPLSDRMY, the amyloid nucleation score is reported as “inactive”.
With RFRCTTSSLRGLFWPNTWKK the amyloid nucleation score was -0.301 ± 0.76.
Substance SGWVLGYSCRKLLLGGLSRG has an amyloid nucleation score of 1.48 ± 0.31.
IYRRPMENI showed an amyloid nucleation score of -0.389 ± 0.36.
RMSHWLSYWVDKS gave an amyloid nucleation score of 0.938 ± 0.57.
HGASSVAFNLLLSCVSWVGC gave an amyloid nucleation score of 7.468 ± 0.04.
In the case of CLNPFDSYGTSYCKCWWSAT, the amyloid nucleation score is reported as -0.451 ± 0.33.
Substance FDKASLKFCVMLVVRSV has an amyloid nucleation score of 0.236 ± 1.1.
Work on CLCGYYQSRMDTYYEL yielded an amyloid nucleation score of -2.18 ± 0.54.
IGTGLDADTSM showed an amyloid nucleation score of 1.44 ± 0.16.
SVEFVLMRLGQLT showed an amyloid nucleation score of 4.18 ± 0.058.
Substance VGSDWKSVNIFAVDEPGSTY has an amyloid nucleation score of -1.43 ± 0.55.
In the case of LMMTSVYLKLGWSFFIFRHR, the amyloid nucleation score is reported as -0.238 ± 1.1.
With RNCTRFPWSIM the amyloid nucleation score was 0.131 ± 1.
